This note sets out measurements from article PMC6336717 (Frontiers in Immunology, 2018).

The labels stand for the following.
T1: FH_(19−20) (C-terminal part of factor H, SCR 19-20), recombinant (human, UniProt P08603 1103-1231)
T1 construct: Complement factor H, human, SCR domains 19-20; also called fragment FH_(19−20); source: recombinant
T1 sequence: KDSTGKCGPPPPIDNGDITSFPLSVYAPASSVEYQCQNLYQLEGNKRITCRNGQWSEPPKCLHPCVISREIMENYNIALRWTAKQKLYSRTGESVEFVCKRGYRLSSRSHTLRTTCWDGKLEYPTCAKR

B1: factor H-related protein 1 (FHR-1), recombinant (natural protein, human, UniProt Q03591 19-330, looked up)
chain: EATFCDFPKINHGILYDEEKYKPFSQVPTGEVFYYSCEYNFVSPSKSFWTRITCTEEGWSPTPKCLRLCFFPFVENGHSESSGQTHLEGDTVQIICNTGYRLQNNENNISCVERGWSTPPKCRSTDTSCVNPPTVQNAHILSRQMSKYPSGERVRYECRSPYEMFGDEEVMCLNGNWTEPPQCKDSTGKCGPPPPIDNGDITSFPLSVYAPASSVEYQCQNLYQLEGNKRITCRNGQWSEPPKCLHPCVISREIMENYNIALRWTAKQKLYLRTGESAEFVCKRGYRLSSRSHTLRTTCWDGKLEYPTCAKR
notes: Complement factor H-related protein 1, human; secreted from CHO cells, so probably the mature protein
B2: Sbi-III-IV(K173A) (domain or fragment)
chain: not shown
notes: As used in SPR, ELISA and SAXS; also called K173A Sbi-III-IV; Sbi-III-IV mutant K173A; source: recombinant, from mutated pQE30:sbi-III-IV plasmid (QuikChange), purified

Data set [1] concerns the molecule itself. As to the kind of experiment: SAXS; Sbi-III-IV, C3d and FHR-1 combined 1:1:1 at 45 uM, in PBS; EOM ensemble modelling with P2 symmetry.
In data set [2] the target is B1. Description: SPR; Biacore S200, CM5 chip, 25°C, HBST (10 mM HEPES, 150 mM NaCl, 0.005% Tween 20, pH 7.4); surfaces: 800 RU opsonized C3b, iC3b made from it, or 600 RU amine-coupled C3d; series of Sbi-III-IV WT or K173A (4,050 to 1.8 nM) flowed alone or co-injected with FH, FHR-1, FHR-2, FHR-5 or FH19-20 at 100, 12.5, 20, 25 or 20 nM. The note with it: both partners purified.

The next data set has as its target T2, Factor H (FH) (human, UniProt P08603 19-1231).
T2 construct: Complement factor H, human, plasma purified; also called plasma purified FH; source: bought: Complement Technologies (plasma purified)
The description is as above. The note with it: both partners purified.

Data set [3] has as its target T1, FH_(19−20) (C-terminal part of factor …). The data set is described as above. Particulars: both partners purified.

In the case of B1, in data set [1], the “stoichiometry N” value came out at 2.
B2: the binding result (in data set [2]; with Factor H (FH); in data set [3]) was “binds” throughout.

The term stoichiometry N denotes a count of units in the complex or per binding partner.
